Substrate in the data set: C=C(C)CCO[P@@](=O)(O)OP(=O)(O)O
As to the kind of experiment: Turnover rate of heterotetrameric Mentha GPP synthase (comparison). It is filed as biochemical. The following applies: other: assuming two functional active sites.

B1: Mentha GPP synthase, heterotetrameric (dimer of heterodimers) (Mentha x piperita) (protein)
chain: MSALVNPVAKWPQTIGVKDVHGGRRRRSRSTLFQSHPLRTEMPFSLYFSSPLKAPATFSVSAVYTKEGSEIRDKDPAPSTSPAFDFDGYMLRKAKSVNKALEAAVQMKEPLKIHESMRYSLLAGGKRVRPMLCIAACELVGGDESTAMPAACAVEMIHTMSLMHDDLPCMDNDDLRRGKPTNHMAFGESVAVLAGDALLSFAFEHVAAATKGAPPERIVRVLGELAVSIGSEGLVAGQVVDVCSEGMAEVGLDHLEFIHHHKTAALLQGSVVLGAILGGGKEEEVAKLRKFANCIGLLFQVVDDILDVTKSSKELGKTAGKDLVADKTTYPKLIGVEKSKEFADRLNREAQEQLLHFHPHRAAPLIALANYIAYRDN
notes: probably E. coli, C-terminal His8 tag, transit peptide deleted
For orientation: kcat means the maximal rate divided by the concentration of active sites. As for B1, the kcat was 2.4 s⁻¹.

(Values after patent publication US7390643B2, “Geranyl diphosphate synthase molecules, and nucleic acid molecules encoding same” (Washington State University Research Foundation, priority 2002, dated 2008).)
